B1: STAM-binding protein (Homo sapiens), O95630 (parent)
chain: MSDHGDVSLPPEDRVRALSQLGSAVEVNEDIPPRRYFRSGVEIIRMASIYSEEGNIEHAFILYNKYITLFIEKLPKHRDYKSAVIPEKKDTVKKLKEIAFPKAEELKAELLKRYTKEYTEYNEEKKKEAEELARNMAIQQELEKEKQRVAQQKQQQLEQEQFHAFEEMIRNQELEKERLKIVQEFGKVDPGLGGPLVPDLEKPSLDVFPTLTVSSIQPSDCHTTVRPAKPPVVDRSLKPGALSNSESIPTIDGLRHVVVPGRLCPQFLQLASANTARGVETCGILCGKLMRNEFTITHVLIPKQSAGSDYCNTENEEELFLIQDQQGLITLGWIHTHPTQTAFLSSVDLHTHCSYQMMLPESVAIVCSPKFQETGFFKLTDHGLEEISSCRQKGFHPHSKDPPLFCSCSHVTVVDRAVTITDLR

Variants of: B1
Details: with stam2_human STAM2, O75886

Row | Variant | effect of a mutation on the interaction
1 | MSDHGDVSLPPEDRVRALSQLGSAVEVNEDIPPRRYFRSGVEIIRMASIYSEEGNIEHAFILYNKYITLFIEKLPKHRDYKSAVIPEKKDTVKKLKEIAFPKAEELKAELLKRYTKEYTEYNEEKKKEAEELARNMAIQQELEKEKQRVAQQKQQQLEQEQFHAFEEMIRNQELEKERLKIVQEFGKVDPGLGGPLVPDLEKPSLDVFPTLTVSSIQPSDCHTTVRPAKPPVVDRSLTPGALSNSESIPTIDGLRHVVVPGRLCPQFLQLASANTARGVETCGILCGKLMRNEFTITHVLIPKQSAGSDYCNTENEEELFLIQDQQGLITLGWIHTHPTQTAFLSSVDLHTHCSYQMMLPESVAIVCSPKFQETGFFKLTDHGLEEISSCRQKGFHPHSKDPPLFCSCSHVTVVDRAVTITDLR [K238T] | decreasing interaction
2 | MSDHGDVSLPPEDRVRALSQLGSAVEVNEDIPPRRYFRSGVEIIRMASIYSEEGNIEHAFILYNKYITLFIEKLPKHRDYKSAVIPEKKDTVKKLKEIAFPKAEELKAELLKRYTKEYTEYNEEKKKEAEELARNMAIQQELEKEKQRVAQQKQQQLEQEQFHAFEEMIRNQELEKERLKIVQEFGKVDPGLGGPLVPDLEKPSLDVFPTLTVSSIQPSDCHTTVRPAHPPVVDRSLKPGALSNSESIPTIDGLRHVVVPGRLCPQFLQLASANTARGVETCGILCGKLMRNEFTITHVLIPKQSAGSDYCNTENEEELFLIQDQQGLITLGWIHTHPTQTAFLSSVDLHTHCSYQMMLPESVAIVCSPKFQETGFFKLTDHGLEEISSCRQKGFHPHSKDPPLFCSCSHVTVVDRAVTITDLR [K229H] | with no effect
